Measurements reported in patent US7799901B2, “Modulators of the function of FAS receptors and other proteins” (Yeda Research and Development Co. Ltd., priority 1995, dated 2010).

Legend:
[1] = test system: HeLa cells; test: Cytotoxicity triggered by induced expression of MORT-1 in HeLa cells; assay type: cell-based, human; conditions: tetracycline-controlled transient expression; neutral red uptake or secreted placental alkaline phosphatase
Experimental: MORT-1, Fas-IC, p55-IC and luciferase cDNAs were inserted into a tetracycline-controlled expression vector and transfected to HtTA-1 cells (a HeLa cell line) (Gossen and Bujard, 1992) together with the secreted placental alkaline phosphatase cDNA, placed under control of SV40 promoter (the pSBC-2 vector, Dirks et al, 1993). Cell death was assessed 40 hours after transfection, either by the neutral-red uptake assay (Wallach, 1984) or, for assessing specifically the death in those cells that express the transfected cDNAs, by determining the amounts of placental alkaline phosphatase (Berger et al, 1988) secreted to the growth medium at the last 5 hours of incubation.
High expression of p55-IC results in triggering of a cytocidal effect (Boldin et al, 1995). The expression of Fas-IC in HeLa cells also has such an effect, though to a lower extent, which could be detected only with the use of a sensitive assay. The ligand independent triggering of cytocidal effects in cells transfected with MORT-1, as well as human p55-IC and FAS-IC, was thus analyzed. The effect of transient expression of MORT-1, human Fas-IC, human p55-IC, or luciferase that served as a control, on the viability of HeLa cells was assessed using a tetracycline-controlled expression vector. […]

[2] = molecular target: T1, p55 TNF receptor (Homo sapiens, UniProt P19438); test: Two-hybrid test of MORT-1 binding (FIG. 1), p55 TNF receptor; conditions: p55-IC residues 206-426, FIG. 1
T1 construct: human p55 TNF receptor (p55-IC residues 206-426); expressed in transfected cells; host or cells: SFY526 yeast
T1 sequence (P19438 235-455): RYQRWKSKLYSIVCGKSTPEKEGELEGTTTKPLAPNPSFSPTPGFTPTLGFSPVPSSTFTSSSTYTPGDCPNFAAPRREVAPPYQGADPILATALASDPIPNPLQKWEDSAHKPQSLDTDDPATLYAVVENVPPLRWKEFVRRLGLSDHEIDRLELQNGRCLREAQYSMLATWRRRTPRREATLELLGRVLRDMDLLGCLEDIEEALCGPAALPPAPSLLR
Excerpt: To isolate proteins interacting with the intracellular domain of the FAS-R, the yeast two-hybrid system was used (Fields and Song, 1989). […] In this system, the genes for the candidate interacting proteins are cloned into separate expression vectors. In one expression vector, the sequence of the one candidate protein is cloned in phase with the sequence of the GAL4 DNA-binding domain to generate a hybrid protein with the GAL4 DNA-binding-domain, and in the other vector, the sequence of the second candidate protein is cloned in phase with the sequence of the GAL4 activation domain to generate a hybrid protein with the GAL4-activation domain. The two hybrid vectors are then co-transformed into a yeast host strain having a lacZ or HIS3 reporter gene under the control of upstream GAL4 binding sites. Only those transformed host cells (cotransformants) in which the two hybrid proteins are expressed and are capable of interacting with each other, will be capable of expressing the reporter gene. In the case of the lacZ reporter gene, host cells expressing this gene will become blue in color when X-gal is added to the cultures. […]
In FIG. 1, there is depicted the interaction of the proteins encoded by the Gal4 DNA binding domain and activation-domain constructs (pGBT9 and pGAD-GH) within transfected SFY526 yeasts as assessed by β-galactosidase expression filter assay. […]

B1: MORT-1: Mediator of Receptor-induced Toxicity; protein binding the intracellular domain of FAS-R, SEQ ID NO:2 (protein)
chain: VNQAPECRFGGGILGPLGKRRDLARASEPRTEGARRAGPQPRPLADPAMDPFLVLLHSVSSSLSSSELTELKFLCLGRVVKRKLERVQSGLDLFSMLLEQNDLEPGHTELLRELLASLRRHDLLRRVDDFEAGAAAGAAPGEEDLCAAFNVICDNVGKDWRRLARQLKVSDTKIDSIEDRYPRNLTERVRESLRIWKNTEKENATVAHLVGALRSCQMNLVADLVQEVQQARDLQNRSGAMSPMSWNSDASTSEAS
For B1, which “cell death on expression in HeLa cells” value [1] is on record?
Its value is “significant cell death”.

What about the “binding to p55 TNF receptor in two-hybrid test” value [2] of the same molecule?
Its value is “not”.
